# Source: article PMC9352680, “A comprehensive thermodynamic model for RNA binding by the Saccharomyces cerevisiae Pumilio protein PUF4”
# Positions count from the first letter of the chain named. Names and notes keep the numbering of the source.
# T1: PUF4 RNA-binding domain (Saccharomyces cerevisiae, UniProt P25339 537-888)
# T1 sequence: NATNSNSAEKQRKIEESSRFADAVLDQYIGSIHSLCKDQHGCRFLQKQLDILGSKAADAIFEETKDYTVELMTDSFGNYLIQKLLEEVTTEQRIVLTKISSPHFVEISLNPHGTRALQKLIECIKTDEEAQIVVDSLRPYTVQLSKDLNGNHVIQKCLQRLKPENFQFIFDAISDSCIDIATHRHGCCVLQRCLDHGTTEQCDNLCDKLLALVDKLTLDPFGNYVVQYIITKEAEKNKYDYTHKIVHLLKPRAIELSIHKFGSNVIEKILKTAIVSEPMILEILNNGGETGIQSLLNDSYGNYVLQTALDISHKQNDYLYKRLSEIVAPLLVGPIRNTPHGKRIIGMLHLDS
# B1: Ic_S2_P4E.1_K4.1_C4.1_H4.1_A4.1_[T5C]_[T7A]_F4.1_[T8C]_[A9C]_T4.1 (ssRNA)
# RNA: UUUGAUUAAUAUGAUAUCGUUCUUUCUUGUACAACCUUCUUUCUCGAUAUCAUAUUAAUCUUU
# B2: Ic_S2_P4E.1_K4.1_C4.1_H4.1_A4.1_[T5A]_[A6T]_[T7A]_F4.1_[T8C]_T4.1 (ssRNA)
# RNA: B1 RNA with C32A, A33U, C36A
# B3: Ic_S2_P4E.1_K4.1_C4.1_H4.1_A4.1_[T5C]_F4.1_[T8C]_[A9G]_T4.1 (ssRNA)
# RNA: B1 RNA with A34U, C36G
# B4: Ic_S2_P4E.1_K4.1_C4.1_H4.1_A4.1_[T5A]_[A6T]_[T7C]_F4.1_[T8A]_[A9T]_T4.1 (ssRNA)
# RNA: B1 RNA with C32A, A33U, A34C, C35A, C36U
# B5: Ic_S2_P4E.1_K4.1_C4.1_H4.1_A4.1_[T5A]_[A6T]_[T7C]_F4.1_T4.1 (ssRNA)
# RNA: B1 RNA with C32A, A33U, A34C, C35U, C36A
# B6: Ic_S2_P4E.1_K4.1_C4.1_H4.1_A4.1_[T5A]_[A6T]_[T7A]_F4.1_T4.1 (ssRNA)
# RNA: B1 RNA with C32A, A33U, C35U, C36A
# B7: Ic_S2_P4E.1_K4.1_C4.1_H4.1_A4.1_[T5A]_[A6T]_[T7C]_F4.1_[T8C]_[A9C]_T4.1 (ssRNA)
# RNA: B1 RNA with C32A, A33U, A34C
# B8: Ic_S2_P4E.1_K4.1_C4.1_H4.1_A4.1_[T5A]_[A6T]_[T7G]_F4.1_[T8C]_[A9T]_T4.1 (ssRNA)
# RNA: B1 RNA with C32A, A33U, A34G, C36U
# B9: Ic_S2_P4E.1_K4.1_C4.1_H4.1_A4.1_[T5A]_[A6C]_[T7A]_F4.1_[T8G]_[A9C]_T4.1 (ssRNA)
# RNA: B1 RNA with C32A, A33C, C35G
# B10: Ic_S2_P4E.1_K4.1_C4.1_H4.1_A4.1_[T5A]_[A6T]_F4.1_[T8G]_[A9T]_T4.1 (ssRNA)
# RNA: B1 RNA with C32A, A33U, A34U, C35G, C36U
# B11: Ic_S2_P4E.1_K4.1_C4.1_H4.1_A4.1_[T5A]_[A6C]_[T7G]_F4.1_[T8C]_[A9C]_T4.1 (ssRNA)
# RNA: B1 RNA with C32A, A33C, A34G
# B12: Ic_S2_P4E.1_K4.1_C4.1_H4.1_A4.1_[T5A]_[A6T]_[T7G]_F4.1_T4.1 (ssRNA)
# RNA: B1 RNA with C32A, A33U, A34G, C35U, C36A
# B13: Ic_S2_P4E.1_K4.1_C4.1_H4.1_A4.1_[T5A]_[A6T]_[T7C]_F4.1_[T8A]_[A9G]_T4.1 (ssRNA)
# RNA: B1 RNA with C32A, A33U, A34C, C35A, C36G
# B14: Ic_S2_P4E.1_K4.1_C4.1_H4.1_A4.1_[T5C]_[T7A]_F4.1_[A9G]_T4.1 (ssRNA)
# RNA: B1 RNA with C35U, C36G
# B15: Ic_S2_P4E.1_K4.1_C4.1_H4.1_A4.1_[T5A]_[A6T]_[T7C]_F4.1_[T8C]_[A9T]_T4.1 (ssRNA)
# RNA: B1 RNA with C32A, A33U, A34C, C36U
# B16: Ic_S2_P4E.1_K4.1_C4.1_H4.1_A4.1_[T5A]_[A6T]_[T7C]_F4.1_[T8C]_[A9G]_T4.1 (ssRNA)
# RNA: B1 RNA with C32A, A33U, A34C, C36G
# B17: Ic_S2_P4E.1_K4.1_C4.1_H4.1_A4.1_[T5A]_[A6C]_[T7C]_F4.1_[T8C]_[A9G]_T4.1 (ssRNA)
# RNA: B1 RNA with C32A, A33C, A34C, C36G
# B18: Ic_S2_P4E.1_K4.1_C4.1_H4.1_A4.1_[T5A]_[A6T]_[T7C]_F4.1_[T8G]_[A9C]_T4.1 (ssRNA)
# RNA: B1 RNA with C32A, A33U, A34C, C35G
# B19: Ic_S2_P4E.1_K4.1_C4.1_H4.1_A4.1_[T5A]_[A6T]_[T7A]_F4.1_[T8A]_[A9T]_T4.1 (ssRNA)
# RNA: B1 RNA with C32A, A33U, C35A, C36U
# B20: Ic_S2_P4E.1_K4.1_C4.1_H4.1_A4.1_[T5A]_[A6C]_[T7G]_F4.1_[T8C]_T4.1 (ssRNA)
# RNA: B1 RNA with C32A, A33C, A34G, C36A
# B21: Ic_S2_P4E.1_K4.1_C4.1_H4.1_A4.1_[T5A]_[A6C]_[T7A]_F4.1_[A9C]_T4.1 (ssRNA)
# RNA: B1 RNA with C32A, A33C, C35U
# B22: Ic_S2_P4E.1_K4.1_C4.1_H4.1_A4.1_[T5A]_[A6C]_[T7G]_F4.1_[T8G]_[A9T]_T4.1 (ssRNA)
# RNA: B1 RNA with C32A, A33C, A34G, C35G, C36U
# B23: Ic_S2_P4E.1_K4.1_C4.1_H4.1_A4.1_[T5A]_[A6T]_F4.1_[T8A]_[A9T]_T4.1 (ssRNA)
# RNA: B1 RNA with C32A, A33U, A34U, C35A, C36U
# B24: Ic_S2_P4E.1_K4.1_C4.1_H4.1_A4.1_[T5C]_[T7A]_F4.1_[T8C]_T4.1 (ssRNA)
# RNA: B1 RNA with C36A
# B25: Ic_S2_P4E.1_K4.1_C4.1_H4.1_A4.1_[T5A]_[A6T]_F4.1_[A9C]_T4.1 (ssRNA)
# RNA: B1 RNA with C32A, A33U, A34U, C35U
# B26: Ic_S2_P4E.1_K4.1_C4.1_H4.1_A4.1_[T5A]_[A6T]_[T7G]_F4.1_[T8C]_[A9C]_T4.1 (ssRNA)
# RNA: B1 RNA with C32A, A33U, A34G
# Target: T1, PUF4 RNA-binding domain
# Test: Mg; RNA-MaP; 20 mM Na-HEPES pH 7.4, 30 mM KOAc, 0.75 mM MgCl2, 0.1% Tween-20, 5% glycerol, 0.1 mg/mL BSA, 2 mM DTT; 25 C; 0.0125-409.6 nM protein
# Conditions: tags: N-His6-TEV cleaved; C-SNAP kept, Cy3B-labelled; label: tethered on chip by stalled RNA polymerase
row,Binder,Kd
1,UCUCUUUGUAAGUAUCUCUU (ssRNA) [Ic_S1_P3E.1_K3.1_C3.1_H3.1_A3.1_[T5A]_[A6G]_F3.1_T3.1],1780 nM
2,UCUCUUUGUAAUUAUCUCUU (ssRNA) [Ib_S1_P3E.1_K3.1_C3.1_H3.1_A3.1_[T5A]_[A6T]_F3.1_T3.1],155 nM
3,UCUCUUCGUAUAUUAUCUCUU (ssRNA) [Ia_S1_P4E.1_K4.1_C4.1_H4.1_[T1C]_A4.1_F4.1_T4.1],20.9 nM
4,B1,87.7 nM
5,B2,558 nM
6,B3,22.3 nM
7,B4,128 nM
8,B5,2.23 nM
9,B6,1.45 nM
10,B7,454 nM
11,B8,518 nM
12,B9,777 nM
13,B10,117 nM
14,B11,851 nM
15,B12,8.85 nM
16,B13,1430 nM
17,B14,7.25 nM
18,B15,283 nM
19,B16,648 nM
20,B17,742 nM
21,B18,629 nM
22,B19,94.7 nM
23,B20,747 nM
24,B21,16 nM
25,B22,1410 nM
26,B23,36.2 nM
27,B24,17.4 nM
28,B25,44.7 nM
29,B26,1040 nM
